Where two headings read alike, the source gives them in different places.

Results on 21 substances are retold here after patent publication US20190338048A1.

Assay [1] has as its target CR8071 lambda light chain L1 with S176K_Y178K. The assay is described as follows: SMCA System C: four chains co-expressed, protein A, LC-MS.
Assay [2] has the same target. Described as above. This is another data set of the same source.
Assay [3] concerns the target CR8071 lambda light chain L1 with S176E_Y178E. Described as above.
Assay [4] has as its target CR8071 lambda light chain E124Q_T131R (L1 of design 3025, system C). The assay is described as follows: SMCA LC-MS.
For assay [5], the target named is CR8071 lambda light chain K129T_S180E (L1 of design 3878, system C). The assay is described as follows: SMCA LC-MS.
The target in assay [6] is CR8071 lambda light chain V133D_Y178T (L1 of designs 3113 and 3122, system C). The assay is described as follows: SMCA LC-MS.
For assay [7] the target is unchanged. The assay is described as follows: SMCA LC-MS. The source holds these as a separate data set.
Assay [8] has as its target Design 3890 L1: CR8071 lambda light chain S122D_K129T_S180E. The assay is described as follows: SMCA: H1, L1, H2, L2 co-expressed, protein A, LC-MS.
Assay [9] addresses Design 3890 L2: SGN-CD19a kappa light chain S121K_Q124R_T178R. Described as above.
The target in assay [10] is Design 3898 L1: CR8071 lambda light chain K129T_Y178E_S180E. The description is as above.
In assay [11] the target is Design 3898 L2: SGN-CD19a kappa light chain Q124R_T178R. Described as above.
Assay [12] has the same target. The description is as above. The source holds these as a separate data set.
In assay [13] the target is Design 3931 L2: SGN-CD19a kappa light chain V133G_S176D. Described as above.
Assay [14] has the same target. The description is as above. The source holds these as a separate data set.
In assay [15] the target is Design 3947 L1: CR8071 lambda light chain K129T_Y178D. Described as above.
The target of assay [16] is SGN-CD19a kappa light chain L2 with S131R_V133G_S176R. The assay is described as follows: SMCA System C: four chains co-expressed, protein A, LC-MS.
Assay [17] shares this target. The assay is described as follows: SMCA System B: four chains co-expressed, protein A, LC-MS.
Assay [18] deals with SGN-CD19a kappa light chain L2 with V133G_S176D. The assay is described as follows: SMCA System C: four chains co-expressed, protein A, LC-MS.
Assay [19] shares this target. The assay is described as follows: SMCA System B: four chains co-expressed, protein A, LC-MS.
Assay [20] has as its target SGN-CD19a kappa light chain L2 with V133G_S176D_T178E. The assay is described as follows: SMCA System C: four chains co-expressed, protein A, LC-MS.
For assay [21] the target is unchanged. The assay is described as follows: SMCA System B: four chains co-expressed, protein A, LC-MS.
Assay [22] has as its target SGN-CD19a kappa light chain L2 with V133G_S176D_T180E. The assay is described as follows: SMCA System C: four chains co-expressed, protein A, LC-MS.
The target is the same in assay [23]. The assay is described as follows: SMCA System B: four chains co-expressed, protein A, LC-MS.
In assay [24] the target is SGN-CD19a kappa light chain L2 with Q124E_V133D. The assay is described as follows: SMCA System C: four chains co-expressed, protein A, LC-MS.
The target is the same in assay [25]. The assay is described as follows: SMCA System B: four chains co-expressed, protein A, LC-MS.
Assay [26] has as its target SGN-CD19a kappa light chain S176K_T178K (L2 of design 3122, systems B and C). The assay is described as follows: SMCA LC-MS.
Assay [27] shares this target. The assay is described as follows: SMCA LC-MS. The source holds these as a separate data set.
Assay [28] concerns the target SGN-CD19a kappa light chain S131R_V133G_S176R (L2 of designs 3102 and 3113, systems B and C). The assay is described as follows: SMCA LC-MS.
Assay [29] has the same target. The assay is described as follows: SMCA LC-MS. The source holds these as a separate data set.
Assay [30] has the same target. The assay is described as follows: SMCA LC-MS. The source holds these as a separate data set.
The target is the same in assay [31]. The assay is described as follows: SMCA LC-MS. This is another data set of the same source.
Assay [32] deals with SGN-CD19a kappa light chain S121K_Q124R_T178R (L2 of design 3890, system B). The assay is described as follows: SMCA LC-MS.
Assay [33] concerns the target SGN-CD19a kappa light chain Q124R_Q160K_T178R (L2 of design 3878, systems B and C). The assay is described as follows: SMCA LC-MS.
For assay [34] the target is unchanged. The assay is described as follows: SMCA LC-MS. This is another data set of the same source.
Assay [35] deals with SGN-CD19a kappa light chain S131D_V133G_T178F (L2 of design 3025, systems B and C). The assay is described as follows: SMCA LC-MS.
For assay [36] the target is unchanged. The assay is described as follows: SMCA LC-MS. The source holds these as a separate data set.

With “CR8071 heavy chain H1 with K145T_V177D_S188D”, in assay [1], the % H1L1 Pairing was 41.5% and the Change in % H1L1 Pairing with respect to wild type is -6.9%. Further, in [2], the % H1L1 Pairing was 62.6% and the Change in % H1L1 Pairing with respect to wild type was 14.2%.

For the substance CR8071 heavy chain H1 with S188K, in assay [3], the % H1L1 Pairing is 94.5% and the Change in % H1L1 Pairing with respect to wild type turned out to be 12.2%.

For “CR8071 heavy chain L143D_K145T (H1 of design 3025, system C)”, in assay [4], the % H1L1 Pairing was determined as 43.9% and the Change in % H1L1 Pairing with respect to wild type is -4.5%.

“CR8071 heavy chain Q179K (H1 of design 3878, system C)”: in assay [5], the % H1L1 Pairing was found to be 99.3% and the Change in % H1L1 Pairing with respect to wild type was found to be 17%.

On to “CR8071 heavy chain S186K_S188T (H1 of designs 3113 and 3122, system C)”, for which, in assay [6], the % H1L1 Pairing amounted to 76.7% and the Change in % H1L1 Pairing with respect to wild type is -5.6%. In [7], the % H1L1 Pairing was found to be 65.8% and the Change in % H1L1 Pairing with respect to wild type was -16.5%.

As to “Design 3890 H1: CR8071 heavy chain A125R_Q179K”, in [8], the % H1L1 Pairing stood at 98.4% and the Change in % H1L1 Pairing with respect to wild type is 30.3%.

For “Design 3890 H2: SGN-CD19a heavy chain L143E_K145T_K228D”, in assay [9], the % H2L2 Pairing stood at 88.5% and the Change in % H2L2 Pairing with respect to wild type stood at 17.2%.

For “Design 3898 H1: CR8071 heavy chain Q179K”, in assay [10], the % H1L1 Pairing stood at 97.4% and the Change in % H1L1 Pairing with respect to wild type was found to be 15.1%.

For “Design 3898 H2: SGN-CD19a heavy chain L143E_K145T_Q179E”, in assay [11], the % H2L2 Pairing amounted to 95.2% and the Change in % H2L2 Pairing with respect to wild type came out at 35.3%. Also, in [12], the % H2L2 Pairing came to 74.5% and the Change in % H2L2 Pairing with respect to wild type is 36.9%.

Regarding “Design 3931 H2: SGN-CD19a heavy chain L124R”, in [13], the % H2L2 Pairing came to 99.5% and the Change in % H2L2 Pairing with respect to wild type amounted to 19.9%. Further, in assay [14], the % H2L2 Pairing was 83.6% and the Change in % H2L2 Pairing with respect to wild type turned out to be 29.4%.

With “Design 3947 H1: CR8071 heavy chain S188K”, in [15], the % H1L1 Pairing was 91.3% and the Change in % H1L1 Pairing with respect to wild type was 23.2%.

Turning to “SGN-CD19a heavy chain H2 with L124E_K145T_Q179E”, the % H2L2 Pairing in [16] was 99.5%; in assay [17], 77.3%. In addition, the figures for the Change in % H2L2 Pairing with respect to wild type in assay [16] and in [17] were 39.6% and 39.7%, respectively.

With SGN-CD19a heavy chain H2 with L124R, in [18], the % H2L2 Pairing was 99.5% and the Change in % H2L2 Pairing with respect to wild type was determined as 19.9%. In assay [19], the % H2L2 Pairing turned out to be 94.6% and the Change in % H2L2 Pairing with respect to wild type stood at 40.4%.

In the case of “SGN-CD19a heavy chain H2 with L124R_S186K”, in assay [20], the % H2L2 Pairing is 99.6% and the Change in % H2L2 Pairing with respect to wild type amounted to 20%. Moreover, in assay [21], the % H2L2 Pairing worked out at 98.8% and the Change in % H2L2 Pairing with respect to wild type was 44.6%.

With “SGN-CD19a heavy chain H2 with L124R_S186R”, the values for the % H2L2 Pairing in assay [22] and in [23] were 99.5% and 98.6%, respectively. For the same substance, the Change in % H2L2 Pairing with respect to wild type in assay [22] stood at 28.2%; in assay [23] it was 44.4%.

Regarding SGN-CD19a heavy chain H2 with L143K, in assay [24], the % H2L2 Pairing came out at 99.6% and the Change in % H2L2 Pairing with respect to wild type was 20%. Moreover, in assay [25], the % H2L2 Pairing was determined as 94.3% and the Change in % H2L2 Pairing with respect to wild type worked out at 40.1%.

On to “SGN-CD19a heavy chain K145T_V177D_S188D (H2 of design 3122, systems B and C)”, for which, in [26], the % H2L2 Pairing is 89.7% and the Change in % H2L2 Pairing with respect to wild type was found to be 52.1%. For the same substance, in assay [27], the % H2L2 Pairing turned out to be 99.8% and the Change in % H2L2 Pairing with respect to wild type stood at 39.9%.

As for “SGN-CD19a heavy chain L124E_K145T_Q179E (H2 of designs 3102 and 3113, systems B and C)”, the % H2L2 Pairing was 92.8% in [28], 99.8% in assay [29], 90.9% in assay [30] and 99.6% in assay [31]. Moreover, the Change in % H2L2 Pairing with respect to wild type in [28] amounted to 55.2%; in assay [29], 39.9%; in assay [30], 53.3%; in assay [31] it was 39.7%.

For “SGN-CD19a heavy chain L143E_K145T_K228D (H2 of design 3890, system B)”, in assay [32], the % H2L2 Pairing was determined as 51.3% and the Change in % H2L2 Pairing with respect to wild type was -2.9%.

Regarding “SGN-CD19a heavy chain L143E_K145T_S188L (H2 of design 3878, systems B and C)”, in [33], the % H2L2 Pairing came to 28.7% and the Change in % H2L2 Pairing with respect to wild type was -8.9%. Moreover, in [34], the % H2L2 Pairing came to 67.4% and the Change in % H2L2 Pairing with respect to wild type is 7.5%.

Take “SGN-CD19a heavy chain S188K (H2 of design 3025, systems B and C)”: the % H2L2 Pairing worked out at 87.9% in assay [35] and 99.7% in assay [36]. Further, the Change in % H2L2 Pairing with respect to wild type is 33.7% in assay [35] and 20.1% in assay [36].
